The results in this text go back to paper PMC10577314 (Frontiers in Cell and Developmental Biology, 2023).

What is called Kd is the free concentration of one partner at which half of the binding sites on the other are occupied at equilibrium, for simple one-to-one binding. A lower Kd goes with a tighter complex.

The experiment addresses T1, C-terminal half of Sec8 (Sec8c, aa544–975) (rat, UniProt Q62824 544-975).
T1 construct: Sec8 (exocyst subunit), Rattus norvegicus, C-terminal half, aa544–975; ends with the ITTV motif; Used in ITC and SEC under the plain name Sec8c; source: E. coli BL21-DE3, purified (Ni-HiTrap HP; Superdex 200)
Put plainly: ITC; 300 µM SAP102 truncation in the syringe titrated into 30 µM Sec8c (or Sec8c-Δ958–971) in the cell; 20 mM HEPES pH 7.5, 100 mM NaCl, 1 mM DTT; one-set-of-sites model; control titration (protein to buffer) subtracted. As to conditions: both partners purified. (In ITC the heat of successive injections is recorded.)

T1 sequence (Q62824 544-975): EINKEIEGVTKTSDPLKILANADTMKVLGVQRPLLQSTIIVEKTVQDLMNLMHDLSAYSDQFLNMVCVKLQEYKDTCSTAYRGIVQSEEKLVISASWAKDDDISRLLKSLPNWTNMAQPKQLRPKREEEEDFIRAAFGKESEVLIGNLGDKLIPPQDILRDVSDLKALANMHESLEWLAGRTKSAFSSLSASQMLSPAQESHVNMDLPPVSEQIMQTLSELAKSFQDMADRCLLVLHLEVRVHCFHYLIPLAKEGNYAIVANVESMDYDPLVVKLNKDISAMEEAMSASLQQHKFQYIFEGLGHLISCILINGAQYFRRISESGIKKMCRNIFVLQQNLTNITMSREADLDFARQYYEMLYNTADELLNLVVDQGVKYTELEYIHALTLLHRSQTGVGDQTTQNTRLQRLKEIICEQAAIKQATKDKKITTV

B1: SAP102 PDZ2 (aa241–331) (domain or fragment, rat, UniProt Q62936 241-331, looked up)
chain: TIMEVNLLKGPKGLGFSIAGGIGNQHIPGDNSIYITKIIEGGAAQKDGRLQIGDRLLAVNNTNLQDVRHEEAVASLKNTSDMVYLKVAKPG
notes: source: E. coli BL21-DE3, purified (Ni-HiTrap HP, SENP2 cleavage, Superdex 200); not shown: His6-SUMO, N-terminal, cleaved
In turn, B1 showed an equilibrium dissociation constant (Kd) of about 4 µM.

B2: SAP102 PDZ1-PDZ2 (aa144–331) (domain or fragment, rat, UniProt Q62936 144-331, looked up)
chain: MFKYEEIVLERGNSGLGFSIAGGIDNPHVPDDPGIFITKIIPGGAAAMDGRLGVNDCVLRVNEVDVSEVVHSRAVEALKEAGPVVRLVVRRRQPPPETIMEVNLLKGPKGLGFSIAGGIGNQHIPGDNSIYITKIIEGGAAQKDGRLQIGDRLLAVNNTNLQDVRHEEAVASLKNTSDMVYLKVAKPG
notes: also called tandem PDZ1-PDZ2; source: E. coli BL21-DE3, purified (Ni-HiTrap HP, SENP2 cleavage, Superdex 200); not shown: His6-SUMO, N-terminal, cleaved
As to B2, the Kd is about 6 µM.
